Earlier results in US20230210827A1, “METHODS AND COMPOSITIONS FOR TREATING ANEMIA USING ACTRIIB LIGAND TRAPS AND MTOR INHIBITORS” (Celgene Corporation, priority 2020, published 2023).

Experiments:
GDF-11 = biological target: T1, GDF-11 (Homo sapiens, UniProt O95390); details: ActRIIB variants; background statements
T1 sequence (O95390 299-407): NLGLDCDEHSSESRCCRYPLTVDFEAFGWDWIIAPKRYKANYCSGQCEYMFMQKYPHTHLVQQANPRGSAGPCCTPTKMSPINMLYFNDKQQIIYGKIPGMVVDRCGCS

activin = details: ActRIIB variants; background statements

B1: L79A: ActRIIB extracellular domain polypeptide with L79A mutation (protein, UniProt Q13705 19-137, looked up, variant L79A)
extracellular domain: SGRGEAETRECIYYNANWELERTNQSGLERCEGEQDKRLHCYASWRNSSGTIELVKKGCWADDFNCYDRQECVATEENPQVYFCCCEGNFCNERFTHLPEAGGPEVTYEPPPTAPTLLT
modifications: extracellular domain
notes: ActRIIB extracellular domain polypeptide with L79A mutation
Question: Which “affinity for / binding to GDF-11” value (GDF-11) does the source give for B1 here?
Answer: Its value is “reduce GDF-11 binding to a greater extent than activin binding”.

B2: L79P: ActRIIB extracellular domain polypeptide with L79P mutation (protein, UniProt Q13705 19-137, looked up, variant L79P)
extracellular domain: SGRGEAETRECIYYNANWELERTNQSGLERCEGEQDKRLHCYASWRNSSGTIELVKKGCWPDDFNCYDRQECVATEENPQVYFCCCEGNFCNERFTHLPEAGGPEVTYEPPPTAPTLLT
modifications: extracellular domain
notes: ActRIIB extracellular domain polypeptide with L79P mutation
Question: Which “affinity for / binding to GDF-11” value (GDF-11) does the source give for B2 here?
Answer: Its value is “reduce GDF-11 binding to a greater extent than activin binding”.

B3: L79E: ActRIIB extracellular domain polypeptide with L79E mutation (protein, UniProt Q13705 19-137, looked up, variant L79E)
extracellular domain: SGRGEAETRECIYYNANWELERTNQSGLERCEGEQDKRLHCYASWRNSSGTIELVKKGCWEDDFNCYDRQECVATEENPQVYFCCCEGNFCNERFTHLPEAGGPEVTYEPPPTAPTLLT
modifications: extracellular domain
notes: ActRIIB extracellular domain polypeptide with L79E mutation
Question: For B3, which “affinity for / binding to activin” value (activin) is on record?
Answer: Its value is “greatly reduced activin binding”.

Question: What about the “affinity for / binding to GDF-11” value (GDF-11) of the same molecule?
Answer: Its value is “retain GDF-11 binding”.

B4: A64: Fc fusion protein having ActRIIB extracellular sequence with alanine at position 64 of SEQ ID NO:2 (protein)
chain: SGRGEAETRECIYYNANWELERTNQSGLERCEGEQDKRLHCYASWANSSGTIELVKKGCWLDDFNCYDRQECVATEENPQVYFCCCEGNFCNERFTHLPEAGGPEVTYEPPPTAPTGGGTHTCPPCPAPELLGGPSVFLFPPKPKDTLMISRTPEVTCVVVDVSHEDPEVKFNWYVDGVEVHNAKTKPREEQYNSTYRVVSVLTVLHQDWLNGKEYKCKVSNKALPVPIEKTISKAKGQPREPQVYTLPPSREEMTKNQVSLTCLVKGFYPSDIAVEWESNGQPENNYKTTPPVLDSDGSFFLYSKLTVDKSRWQQGNVFSCSVMHEALHNHYTQKSLSLSPGK
modifications: fusion protein comprising a soluble extracellular domain of ActRIIB (A64; SEQ ID NO 3) fused to an Fc domain
Question: For B4, which “affinity for / binding to activin” value (activin) is on record?
Answer: Its value is “relatively low affinity”.

Question: What about the “affinity for / binding to GDF-11” value (GDF-11) of the same molecule?
Answer: Its value is “relatively low affinity”.

B5: R64: Fc fusion protein with an arginine at position 64 of the ActRIIB precursor amino acid sequence (protein)
chain: SGRGEAETRECIYYNANWELERTNQSGLERCEGEQDKRLHCYASWRNSSGTIELVKKGCWLDDFNCYDRQECVATEENPQVYFCCCEGNFCNERFTHLPEAGGPEVTYEPPPTAPTGGGTHTCPPCPAPELLGGPSVFLFPPKPKDTLMISRTPEVTCVVVDVSHEDPEVKFNWYVDGVEVHNAKTKPREEQYNSTYRVVSVLTVLHQDWLNGKEYKCKVSNKALPVPIEKTISKAKGQPREPQVYTLPPSREEMTKNQVSLTCLVKGFYPSDIAVEWESNGQPENNYKTTPPVLDSDGSFFLYSKLTVDKSRWQQGNVFSCSVMHEALHNHYTQKSLSLSPGK
modifications: fusion protein comprising a soluble extracellular domain of ActRIIB (R64; SEQ ID NO15) fused to an Fc domain
Question: For B5, which “affinity for / binding to activin” value (activin) is on record?
Answer: Its value is “low nanomolar to high picomolar range”.

Question: And the “affinity for / binding to GDF-11” value (GDF-11)?
Answer: Its value is “low nanomolar to high picomolar range”.

B6: L79D: ActRIIB extracellular domain polypeptide with L79D mutation (protein, listed as Homo sapiens)
chain: MTAPWVALALLWGSLWPGSGRGEAETRECIYYNANWELERTNQSGLERCEGEQDKRLHCYASWANSSGTIELVKKGCWDDDFNCYDRQECVATEENPQVYFCCCEGNFCNERFTHLPEAGGPEVTYEPPPTAPTLLTVLAYSLLPIGGLSLIVLLAFWMYRHRKPPYGHVDIHEDPGPPPPSPLVGLKPLQLLEIKARGRFGCVWKAQLMNDFVAVKIFPLQDKQSWQSEREIFSTPGMKHENLLQFIAAEKRGSNLEVELWLITAFHDKGSLTDYLKGNIITWNELCHVAETMSRGLSYLHEDVPWCRGEGHKPSIAHRDFKSKNVLLKSDLTAVLADFGLAVRFEPGKPPGDTHGQVGTRRYMAPEVLEGAINFQRDAFLRIDMYAMGLVLWELVSRCKAADGPVDEYMLPFEEEIGQHPSLEELQEVVVHKKMRPTIKDHWLKHPGLAQLCVTIEECWDHDAEARLSAGCVEERVSLIRRSVNGTTSDCLVSLVTSVTNVDLPPKESSI
modifications: human ActRIIB precursor protein sequence (A64)
notes: ActRIIB extracellular domain polypeptide with L79D mutation
Question: For B6, which “affinity for / binding to activin” value (activin) is on record?
Answer: The value was “greatly reduced activin binding”.

Question: And the “affinity for / binding to GDF-11” value (GDF-11)?
Answer: Its value is “retain GDF-11 binding”.

B7: ActRIIB(20-119)-Fc: ActRIIB-Fc fusion protein containing amino acids 20-119 of SEQ ID NO:14 (SEQ ID NO:18) (protein)
chain: GRGEAETRECIYYNANWELERTNQSGLERCEGEQDKRLHCYASWRNSSGTIELVKKGCWLDDFNCYDRQECVATEENPQVYFCCCEGNFCNERFTHLPEA
modifications: human ActRIIB soluble (extracellular), processed polypeptide sequence with the C-terminal 15 aa deleted (aa 20-119 of SEQ ID NO14)
Question: Which results are given for B7?
Answer: affinity for / binding to activin (activin): reduced binding to GDF-11 and activin; affinity for / binding to GDF-11 (GDF-11): reduced binding to GDF-11 and activin
